Among the data in patent US20200231652A1 (NATIONAL RESEARCH COUNCIL OF CANADA, published 2020) are Kd values, retold here.

The target of the assay is RSV-F (UniProt P03420 26-529). Description: SPR, similar method as for Cetuximab. A general note: Surface plasmon resonance follows binding to a sensor surface in real time, without labels.
RSV-F, sequence (P03420 26-529): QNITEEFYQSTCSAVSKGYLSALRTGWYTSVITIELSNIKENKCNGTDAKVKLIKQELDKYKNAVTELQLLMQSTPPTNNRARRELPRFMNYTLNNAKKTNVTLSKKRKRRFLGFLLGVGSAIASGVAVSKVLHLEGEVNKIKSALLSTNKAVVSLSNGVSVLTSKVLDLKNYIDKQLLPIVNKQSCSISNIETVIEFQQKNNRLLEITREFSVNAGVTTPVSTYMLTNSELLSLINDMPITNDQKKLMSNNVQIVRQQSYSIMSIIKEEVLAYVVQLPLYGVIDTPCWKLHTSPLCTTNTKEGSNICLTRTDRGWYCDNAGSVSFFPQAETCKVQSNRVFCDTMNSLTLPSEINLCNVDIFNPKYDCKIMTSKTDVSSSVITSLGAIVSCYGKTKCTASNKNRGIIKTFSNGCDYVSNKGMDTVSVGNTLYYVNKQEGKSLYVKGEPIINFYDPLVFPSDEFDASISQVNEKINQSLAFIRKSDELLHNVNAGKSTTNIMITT

B1: Synagis (antibody, human IgG1, kappa, V domains shown)
VH: QVTLRESGPALVKPTQTLTLTCTFSGFSLSTSGMSVGWIRQPPGKALEWLADIWWDDKKDYNPSLKSRLTISKDTSKNQVVLKVTNMDPADTATYYCARSMITNWYFDVWGAGTTVTVSS
VL: DIQMTQSPSTLSASVGDRVTITCKCQLSVGYMHWYQQKPGKAPKLLIYDTSKLASGVPSRFSGSGSGTEFTLTISSLQPDDFATYYCFQGSGYPFTFGGGTKLEIKR
As to B1, the affinity, expressed as Kd, was 6.6 nM.

As a reminder, the Kd is the free concentration of one partner at which half of the binding sites on the other are occupied at equilibrium, for simple one-to-one binding.
